Measured values published in US20200216495A1 (ADRX, published 2020).
Several values for one entry are separate records, joined by “and”; a condition that tells them apart may be missing. Identical values can stand only once. Square brackets hold non-standard residues; d marks the D form. Ends that are not written are not given here. dCit = NC(=O)NCCC[C@@H](N)C(=O)O; dNle = CCCC[C@@H](N)C(=O)O

Assays:
[1] = target: Ac-VQIINK-NH2 (SEQ ID NO: 23) (N-terminal acetyl (Ac); C-terminal amide (NH2)); assay: cell-based or functional assay
Tau40 P301L protein = Tau40 P301L protein (human); assay: cell-based or functional assay

Binder | VQIINK Inhibition IC50 [1] | IC50, Tau40 assay (ThT) (Tau40 P301L protein) [nM]
[dL][dE][dF][dE][dL][dK][dY][dW] [lefelkyw] | 1.38 µm | –
[dF][dK][dI][dE][dL][dH][dW][dH] [fkielhwh] | 1.41 µm | –
[dH][dY][dH][dI][dR][dI][dK][dL] [hyhirikl] | 0.96 µm | –
[dL][dK][dI][dE][dI][dH][dY] [lkieihy] | 0.65 µm | –
[dL][dE][dI][dK][dI][dR][dH][dW] [leikirhw] | 1.15 µm | –
[dF][dH][dI][dH][dI][dK][dF][dH] [fhihikfh] | 1.16 µm | –
[dF][dR][dL][dK][dV][dR][dW][dW] [frlkvrww] | 0.76 µm | –
[dF][dK][dL][dK][dL][dW][dW] [fklklww] | 1.3 µm | –
[dF][dE][dI][dR][dL][dW][dH][dH] [feirlwhh] | 1.17 µm | –
[dL][dK][dI][dK][dL][dR][dH][dY] [lkiklrhy (PEPTIDE ID NO: 144)] | – | 1090
[dF][dK][dL][dK][dL][dR][dW] [fklklrw] | 1.2 µm | –
[dL][dK][dI][dR][dI][dR][dF][dH] [lkirirfh] | 1.24 µm | –
[dL][dE][dI][dR][dI][dH][dY] [leirihy] | 0.77 µm | –
[dR][dL][dK][dV][dR][dW][dW][dW] [rlkvrwww] | 1.21 µm | –
[dF][dR][dI][dR][dI][dH][dH][dW] [fririhhw] | 0.82 µm | –
[dF][dE][dL][dH][dI][dK][dW][dH] [felhikwh] | 1.29 µm | –
[dL][dK][dI][dNle][dI][dH][dY] [lkiuihy] | 0.26 µm | –
[dF][dH][dI][dR][dI][dR][dH][dW] [fhirirhw] | 1.1 µm | –
[dL][dR][dL][dK][dV][dR][dW][dL] [lrlkvrwl] | 0.93 µm | –
[dL][dK][dI][dR][dI][dCit][dY] [lkirizy] | 0.76 µm | –
[dF][dK][dL][dK][dL][dW][dW][dF] [fklklwwf] | 1.15 µm | –
[dL][dK][dI][dL][dI][dH][dY][dH] [lkilihyh] | 1.41 µm | –
[dF][dR][dL][dK][dV][dR][dW][dF] [frlkvrwf] | 1.26 µm and 2.57 µm | –
[dL][dR][dL][dK][dV][dR][dW][dW] [lrlkvrww] | 0.67 µm | –
[dF][dR][dL][dR][dI][dW][dW] [frlriww] | 1.4 µm | –
[dF][dR][dL][dK][dI][dR][dW] [frlkirw] | 0.69 µm | –
[dL][dK][dI][dR][dI][dE][dY] [lkiriey] | 1.05 µm | –
[dL][dK][dI][dY][dI][dH][dY] [lkiyihy] | 0.17 µm | –
[dF][dE][dL][dK][dL][dR][dW][dH] [felklrwh] | 1.03 µm | –
[dF][dK][dI][dR][dI][dK][dW][dH] [fkirikwh] | 1.3 µm | –

The next lines start with the values.

VQIINK Inhibition IC50 [1] | IC50, Tau40 assay (ThT) (Tau40 P301L protein) [nM] | Binder
0.97 µm | – | [dW][dQ][dL][dK][dV][dR][dW] [wqlkvrw]
0.41 µm | – | [dW][dN][dL][dK][dV][dR][dW] [wnlkvrw]
1.38 µm | – | [dW][dR][dL][dN][dV][dN][dW] [wrlnvnw]
0.75 µm | – | [dW][dK][dV][dK][dI][dQ][dY][dH] [wkvkiqyh]
1.08 µm | – | [dW][dL][dR][dV][dQ][dV][dK][dW] [wlrvqvkw]
0.79 µm | – | [dW][dR][dL][dR][dV][dR][dW][dW] [wrlrvrww]
0.26 µm | – | [dW][dE][dL][dK][dV][dR][dW] [welkvrw]
1.29 µm | – | [dW][dK][dV][dN][dV][dR][dL][dW] [wkvnvrlw]
1.25 µm | – | [dW][dL][dR][dV][dQ][dV][dK][dL][dW] [wlrvqvklw]
1.2 µm | – | [dW][dR][dI][dW][dI][dR][dY][dW] [wriwiryw]
0.94 µm | – | [dW][dK][dV][dQ][dV][dR][dL][dW] [wkvqvrlw]
1.37 µm | – | [dW][dR][dL][dK][dV][dR][dW][dL] [wrlkvrwl]
1.35 µm | – | [dW][dR][dF][dH][dI][dH][dF][dY] [wrfhihfy]
1.34 µm | – | [dW][dR][dL][dR][dI][dW][dW] [wrlriww]
